The record followed here is paper PMC7142231, “α1-Microglobulin Binds Illuminated Flavins and Has a Protective Effect Against Sublethal Riboflavin-Induced Damage in Retinal Epithelial Cells” (Frontiers in Physiology, 2020).

Data set [1] deals with Cleaved A1M (~22 kDa band formed with illuminated riboflavin or FAD) (human). The data set can be described thus: SDS-PAGE; 12% SDS-PAGE, samples reduced with 5% β-mercaptoethanol and boiled 1 min (similar results non-reducing); A1M with buffer or 40, 200, 1000 μM riboflavin or FAD, illuminated or in darkness 1 h at RT; Coomassie stain and Western blot.
Data set [2] deals with the molecule itself. The description is as above.

“Cleaved A1M (~22 kDa band formed with illuminated riboflavin or FAD) (domain or fragment)”: the stoichiometry N in data set [1] was 2.

B1: Recombinant human α1-microglobulin (A1M) with an N-terminal His-tag (natural protein, UniProt P02760 20-203, looked up)
chain: GPVPTPPDNIQVQENFNISRIYGKWYNLAIGSTCPWLKKIMDRMTVSTLVLGEGATEAEISMTSTRWRKGVCEETSGAYEKTDTDGKFLYHKSKWNITMESYVVHTNYDEYAIFLTKKFSRHHGPTITAKLYGRAPQLRETLLQDFRVVAQGVGIPEDSIFTMADRGECVPGEQEPEPILIPRV
notes: human α1-microglobulin (A1M), the lipocalin cut from the AMBP precursor; construct as in Kwasek et al., 2007; also called recombinant A1M; not shown: His-tag, N-terminal, kept
Consider B1, for which the “stoichiometry N” value in data set [2] came out at 2.
